Experimental data taken from patent US20260207718A1, “METHODS FOR TREATING LATE ONSET POMPE DISEASE IN PEDIATRIC PATIENTS” (Amicus Therapeutics, Inc., priority 2022, published 2026).
“Also recorded” adds a separate entry of the source. Read-outs that look alike come from different tables or passages of the source. Marks after values point to notes of the source that are not given here.

Columns and labels:
[1] = Case: pediatric atypical IOPD patient, PK of ATB200 and AT2221 after 1 year; assay type: in vivo, human
[2] = target: T1, CIMPR (Homo sapiens, UniProt P11717); assay: CIMPR affinity chromatography (bound vs unbound rhGAA by GAA activity); assay type: binding
T1 sequence (P11717 41-2491, species assumed): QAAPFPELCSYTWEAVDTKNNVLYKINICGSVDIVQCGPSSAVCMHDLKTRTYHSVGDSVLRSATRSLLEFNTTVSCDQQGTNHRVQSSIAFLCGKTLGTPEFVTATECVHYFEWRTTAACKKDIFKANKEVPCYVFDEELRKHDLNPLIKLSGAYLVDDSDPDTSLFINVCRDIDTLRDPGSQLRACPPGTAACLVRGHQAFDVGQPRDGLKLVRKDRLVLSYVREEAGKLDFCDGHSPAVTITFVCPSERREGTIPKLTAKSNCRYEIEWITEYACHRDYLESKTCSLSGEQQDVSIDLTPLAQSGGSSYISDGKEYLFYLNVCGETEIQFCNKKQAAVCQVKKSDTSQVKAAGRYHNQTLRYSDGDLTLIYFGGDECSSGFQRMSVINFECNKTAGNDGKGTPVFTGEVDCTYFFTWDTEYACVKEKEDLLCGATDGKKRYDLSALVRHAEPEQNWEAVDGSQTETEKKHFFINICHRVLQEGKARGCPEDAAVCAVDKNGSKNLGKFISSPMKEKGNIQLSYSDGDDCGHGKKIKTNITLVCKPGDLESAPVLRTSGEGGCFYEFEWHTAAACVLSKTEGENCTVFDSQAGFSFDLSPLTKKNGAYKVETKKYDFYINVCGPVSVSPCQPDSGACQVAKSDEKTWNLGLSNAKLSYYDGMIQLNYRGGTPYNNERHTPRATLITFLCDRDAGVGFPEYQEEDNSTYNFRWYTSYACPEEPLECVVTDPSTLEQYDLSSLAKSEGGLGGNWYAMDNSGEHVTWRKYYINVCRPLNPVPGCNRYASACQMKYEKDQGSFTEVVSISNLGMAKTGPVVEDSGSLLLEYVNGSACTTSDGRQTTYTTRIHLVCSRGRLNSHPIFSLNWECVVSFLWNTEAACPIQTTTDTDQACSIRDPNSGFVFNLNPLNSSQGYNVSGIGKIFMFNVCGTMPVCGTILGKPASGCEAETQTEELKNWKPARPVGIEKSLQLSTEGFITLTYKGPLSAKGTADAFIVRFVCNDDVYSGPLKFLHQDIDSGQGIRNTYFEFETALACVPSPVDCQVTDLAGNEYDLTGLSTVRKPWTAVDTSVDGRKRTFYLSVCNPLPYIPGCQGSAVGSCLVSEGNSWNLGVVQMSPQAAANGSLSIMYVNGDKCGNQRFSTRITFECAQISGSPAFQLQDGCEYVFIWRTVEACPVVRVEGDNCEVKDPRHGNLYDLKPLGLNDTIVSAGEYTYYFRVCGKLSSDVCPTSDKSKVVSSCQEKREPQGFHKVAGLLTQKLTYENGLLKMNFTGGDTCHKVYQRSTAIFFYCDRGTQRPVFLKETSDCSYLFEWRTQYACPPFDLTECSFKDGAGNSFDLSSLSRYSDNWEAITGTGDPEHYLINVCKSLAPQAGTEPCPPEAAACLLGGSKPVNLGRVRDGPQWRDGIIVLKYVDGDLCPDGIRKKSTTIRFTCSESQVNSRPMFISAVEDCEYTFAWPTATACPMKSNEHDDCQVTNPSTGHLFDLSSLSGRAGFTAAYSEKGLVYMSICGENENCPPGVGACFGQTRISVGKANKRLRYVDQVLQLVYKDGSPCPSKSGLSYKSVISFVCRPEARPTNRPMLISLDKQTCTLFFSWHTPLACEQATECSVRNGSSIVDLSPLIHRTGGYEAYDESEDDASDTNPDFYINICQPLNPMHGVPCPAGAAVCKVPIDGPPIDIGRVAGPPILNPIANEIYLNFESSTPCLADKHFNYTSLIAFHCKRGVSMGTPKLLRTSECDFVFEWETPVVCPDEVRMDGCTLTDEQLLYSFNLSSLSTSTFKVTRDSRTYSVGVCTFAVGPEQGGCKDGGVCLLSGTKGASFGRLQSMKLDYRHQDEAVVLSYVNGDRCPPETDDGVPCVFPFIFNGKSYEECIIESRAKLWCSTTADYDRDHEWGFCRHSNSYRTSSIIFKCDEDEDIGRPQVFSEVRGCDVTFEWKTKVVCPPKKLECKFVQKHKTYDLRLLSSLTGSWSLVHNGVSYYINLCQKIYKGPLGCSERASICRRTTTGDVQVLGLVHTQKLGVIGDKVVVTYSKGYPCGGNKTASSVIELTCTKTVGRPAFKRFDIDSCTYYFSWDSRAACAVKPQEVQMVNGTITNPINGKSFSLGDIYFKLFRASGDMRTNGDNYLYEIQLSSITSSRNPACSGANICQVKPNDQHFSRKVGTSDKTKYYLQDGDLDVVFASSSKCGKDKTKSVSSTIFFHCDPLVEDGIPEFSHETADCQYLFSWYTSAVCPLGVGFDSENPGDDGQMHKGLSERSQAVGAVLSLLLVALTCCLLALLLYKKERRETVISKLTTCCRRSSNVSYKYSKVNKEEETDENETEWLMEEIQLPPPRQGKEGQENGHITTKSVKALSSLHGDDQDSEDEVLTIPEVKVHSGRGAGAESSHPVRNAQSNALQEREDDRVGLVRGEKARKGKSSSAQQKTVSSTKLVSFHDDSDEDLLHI
Excerpt: Multiple batches of the rhGAA according to the disclosure were produced in shake flasks and in perfusion bioreactors using CHO cell line GA-ATB200, the product of which is referred to as “ATB200.” Weak anion exchange (“WAX”) liquid chromatography was used to fractionate ATB200 rhGAA according to terminal phosphate and sialic acid. Elution profiles were generated by eluting the ERT with increasing amount of salt. The profiles were monitored by UV (A280 nm).
To evaluate the ability of the conventional rhGAAs in MYOZYME® and LUMIZYME® to interact with the CIMPR, the two conventional rhGAA preparations were injected onto a CIMPR affinity column (which binds rhGAA having M6P groups) and the flow through collected. The bound material was eluted with a free M6 gradient. Fractions were collected in 96-well plate and GAA activity assayed by 4MU-α-glucosidase substrate. The relative amounts of unbound (flow through) and bound (M6P eluted) rhGAA were determined based on GAA activity and reported as the fraction of total enzyme. […] Indeed, only 27% of the rhGAA in MYOZYME® and 22% of the rhGAA in LUMIZYME® contained M6P that can be productive to target it to the CIMPR on muscle cells.

[3] = ATB200-04 trial: population PK exposure matching of adolescents to adults; assay type: in vivo, human; set-up: AUC0-24, Mean / AUC0-24, Median / AUC0-24, P5 / AUC0-24, P95 / AUC0-24, Geo Mean: unit not given beside the values; settings: for AUC0-24, Geo Mean / AUC0-24, Mean / AUC0-24, Median / AUC0-24, P5 / AUC0-24, P95: predicted
Excerpt: The ATB200-04 trial seeks to evaluate the safety and tolerability of cipaglucosidase alfa/miglustat co-administration.
Subjects have scheduled PK assessments at Day 1, Week 26, and Week 52 for plasma total GAA protein and miglustat.
Population PK parameters include clearance (CL) and volume of distribution (V), estimated from total GAA protein concentrations and miglustat concentrations in plasma.
Methods for Exposure Matching. Pediatric PK data from both clinical trials and expanded access programs were used for exposure matching to adult PK data. […] The previous base population PK models from cipaglucosidase alfa-atga and miglustat were rerun with the updated dataset. To account for longitudinal changes in body size for pediatric patients, the time-varying body weight was used to estimate the effects of body size on PK parameters in the population PK models. The effect of age at baseline on clearance was also evaluated in the PK models. Individual AUC0-24 and Cmax of cipaglucosidase alfa and miglustat were predicted from the PK empirical Bayes estimates (EBEs). The time-varying body weight and baseline age in pediatrics were used in the exposure prediction. PK exposures (AUC0-24 and Cmax) were predicted for each PK visit during the study; Day 1-baseline, Week 26, and Week 52. Additionally, there were unscheduled PK visits for some subjects.
Results for Adolescent Subjects. […] The dose may have been adjusted at a later visit for exposure matching. It should be noted however, that in the early stage of the study, all subjects were started at 20 mg/kg to evaluate safety.

[4] = target: T1, CIMPR; assay: CIMPR plate binding assay
Experimental: In addition to having a greater percentage of rhGAA that can bind to the CIMPR, it is important to understand the quality of that interaction. LUMIZYME® and ATB200 receptor binding was determined using a CIMPR plate binding assay. Briefly, CIMPR-coated plates were used to capture GAA. Varying concentrations of rhGAA were applied to the immobilized receptor and unbound rhGAA was washed off. The amount of remaining rhGAA was determined by GAA activity. […] For LUMIZYME®, there is on average only 10% of molecules having a bis-phosphorylated N-glycan. In contrast, on average every rhGAA molecule in ATB200 has at least one bis-phosphorylated N-glycan.
N-glycan analysis via MALDI-TOF mass spectrometry confirmed that on average each ATB200 molecule contains at least one natural bis-M6P N-glycan structure.

[5] = tested on: normal and Pompe fibroblast cell lines; assay: Cellular uptake of rhGAA in fibroblasts; assay type: cell-based
Experimental: The relative cellular uptake of ATB200 and LUMIZYME® rhGAA were compared using normal and Pompe fibroblast cell lines. Comparisons involved 5-100 nM of ATB200 according to the disclosure with 10-500 nM conventional rhGAA product LUMIZYME®. After 16-hr incubation, external rhGAA was inactivated with TRIS base and cells were washed 3-times with PBS prior to harvest. Internalized GAA measured by 4MU-α-Glucoside hydrolysis and was graphed relative to total cellular protein and the results appear in FIGS. 11A-11C.
ATB200 was also shown to be efficiently internalized into cells. […] ATB200 saturates cellular receptors at about 20 nM, while about 250 nM of LUMIZYME® is needed to saturate cellular receptors.

[6] = tested on: pediatric subjects with late-onset Pompe disease; assay: ATB200-04 trial: safety in pediatric subjects with LOPD; assay type: in vivo, human; settings: ERT-experienced subject, Cohort 2
Excerpt: This study includes subjects with Pompe disease except classic IOPD.
Safety assessments include monitoring of adverse events (AEs), clinical laboratory tests (chemistry, hematology, and urinalysis), physical examinations, vital signs, 12-lead electrocardiogram (ECGs), and detection of cipaglucosidase alfa antibodies.

[7] = Thermostability assay using SYPRO Orange; assay type: physicochemical
Experimental: The stability of ATB200 in acidic or neutral pH buffers was evaluated in a thermostability assay using SYPRO Orange, as the fluorescence of the dye increases when proteins denature. […] As summarized in Table 10, the addition of miglustat increased the melting temperature (Tm) of ATB200 by nearly 10° C.

[8] = tested on: Gaa KO mice; assay: Single fiber analysis (LAMP1/LC3) of muscle fibers from Gaa KO mice; assay type: in vivo
Excerpt: FIG. 17 depicts co-immunofluorescent staining of LAMP1 (green) (see for example, “B”) and LC3 (red) (see, for example, “A”) in single fibers isolated from the white gastrocnemius of Gaa KO mice treated with a vehicle, alglucosidase alfa, or ATB200. “C” depicts clearance of autophagic debris and absence of enlarged lysosome. A minimum of 30 fibers were examined from each animal.
As a result, a significant portion of muscle fibers analyzed (36-60%) from ATB200-treated mice appeared normal or near-normal.

[9] = adolescent Subject 2, 20 mg/kg, Week 52, 83.8 kg
[10] = adolescent Subject 3, 25 mg/kg, Week 52, 64.6 kg
[11] = adolescent Subject 4, 25 mg/kg, Week 64, 53.3 kg
[12] = adolescent Subject 5, 25 mg/kg, Week 52, 43.7 kg
[13] = adolescent Subject 6, 25 mg/kg, Week 52, 36.5 kg
[14] = adolescent Subject 7, 25 mg/kg, Week 52, 60.3 kg
[15] = adolescent Subject 8, 25 mg/kg, Week 72, 38.5 kg

ATB200: recombinant human acid α-glucosidase with high content of N-glycans bearing mono-M6P and bis-M6P, produced from GA-ATB200 CHO cell line
ATB200 AUC ([1]; Adult (10th-90th percentile)): 1001 to 1924 µg·h/mL | ATB200 Cmax ([1]; Adult (10th-90th percentile)): 223 to 363 µg/mL | ATB200 AUC ([1]; Adult (median)): 1415 µg·h/mL | ATB200 Cmax ([1]; Adult (median)): 294 µg/mL | ATB200 AUC ([1]; patient with atypical IOPD, 12Y5M, 46.5 kg, ATB200 20 mg/kg + AT2221 195 mg biweekly for 1 year): 1257 µg·h/mL | ATB200 Cmax ([1]; patient with atypical IOPD, 12Y5M, 20 mg/kg): 245 µg/mL | rhGAA that bound to the CIMPR [2]: more than 70% | rhGAA that bound to the CIMPR ([2]; listed as ATB200 rhGAA): ≥ 70% | AUC0-24, geometric LSM Ratio adolescents to adults ([3]; 90% CI (81.96, 96.88)): 89.11 | Cmax, geometric LSM Ratio adolescents to adults ([3]; 90% CI (82.51, 104.69)): 92.94 | individual predicted AUC0-24 ([3]; adolescent Subject 1, 20 mg/kg, Week 52, 77.9 kg): 1396 | individual predicted AUC0-24 [3, 9]: 1315 | individual predicted Cmax [3, 9]: 277 | individual predicted AUC0-24 [3, 10]: 1318 | individual predicted Cmax [3, 10]: 305 | individual predicted AUC0-24 [3, 11]: 1472 | individual predicted Cmax [3, 11]: 294 | individual predicted AUC0-24 [3, 12]: 1175 | individual predicted Cmax [3, 12]: 240 | individual predicted AUC0-24 [3, 13]: 1047 | individual predicted Cmax [3, 13]: 222 | individual predicted AUC0-24 [3, 14]: 1269 | individual predicted Cmax [3, 14]: 273 | individual predicted AUC0-24 [3, 15]: 1138 | individual predicted Cmax [3, 15]: 229 | predicted AUC0-24 and Cmax for adolescents relative to adult 5th and 95th percentile range ([3]; adults N=100, adolescents N=8): well within the adult 5th and 95th percentile range | AUC0-24, Geo Mean ([3]; Adolescents N=8): 1259 | AUC0-24, Mean ([3]; Adolescents N=8): 1266 | AUC0-24, Median ([3]; Adolescents N=8): 1292 | AUC0-24, P5 ([3]; Adolescents N=8): 1079 | AUC0-24, P95 ([3]; Adolescents N=8): 1446 | AUC0-24, Geo Mean ([3]; Adults N=100): 1413 | AUC0-24, Mean ([3]; Adults N=100): 1461 | AUC0-24, Median ([3]; Adults N=100): 1433 | AUC0-24, P5 ([3]; Adults N=100): 898 | AUC0-24, P95 ([3]; Adults N=100): 2162 | binding to CIMPR compared with LUMIZYME® ([4]; CIMPR plate binding assay, FIG. 10A): bound to CIMPR significantly better than LUMIZYME® | Kd ([4]; M6P receptor plate binding assays): 2 to 4 nM | concentration that saturates cellular receptors ([5]; 16-hr incubation): about 20 nM | uptake efficiency constant (Kuptake) ([5]; 16-hr incubation, extrapolated, FIG. 11C): 2-3 nm | internalization into normal and Pompe fibroblast cells ([5]; FIGS. 11A-11B): internalized to a greater degree than the conventional rhGAA product LUMIZYME® | investigator-assessed relatedness of anaphylaxis event (both episodes) [6]: definitely related | Tm ([7]; pH 5.2): 67.3 °C | Tm ([7]; pH 7.4): 56.2 °C | increase of melting temperature (Tm) by addition of miglustat ([7]; pH 7.4): ~10 °C | Tm ([7]; pH 7.4 + 10 μM miglustat): 61.6 °C | Tm ([7]; pH 7.4 + 30 μM miglustat): 62.9 °C | Tm ([7]; pH 7.4 + 100 μM miglustat): 66.0 °C | Fibers with Autophagy Buildup [8]: 40-64%* | Fibers with Normal or Near-normal Appearance [8]: 36-60% | Lysosome Enlargement ([8]; white gastrocnemius): dramatically decreased lysosome size; also recorded: Dramatic size
